Experimental findings from PMC11615309 (Nature Communications, 2024) are described below.

This experiment addresses T1, 6xHis-tagged FAT1 cadherin #28-33 (3024-3789 aa) (UniProt Q14517 3024-3789).
T1 sequence: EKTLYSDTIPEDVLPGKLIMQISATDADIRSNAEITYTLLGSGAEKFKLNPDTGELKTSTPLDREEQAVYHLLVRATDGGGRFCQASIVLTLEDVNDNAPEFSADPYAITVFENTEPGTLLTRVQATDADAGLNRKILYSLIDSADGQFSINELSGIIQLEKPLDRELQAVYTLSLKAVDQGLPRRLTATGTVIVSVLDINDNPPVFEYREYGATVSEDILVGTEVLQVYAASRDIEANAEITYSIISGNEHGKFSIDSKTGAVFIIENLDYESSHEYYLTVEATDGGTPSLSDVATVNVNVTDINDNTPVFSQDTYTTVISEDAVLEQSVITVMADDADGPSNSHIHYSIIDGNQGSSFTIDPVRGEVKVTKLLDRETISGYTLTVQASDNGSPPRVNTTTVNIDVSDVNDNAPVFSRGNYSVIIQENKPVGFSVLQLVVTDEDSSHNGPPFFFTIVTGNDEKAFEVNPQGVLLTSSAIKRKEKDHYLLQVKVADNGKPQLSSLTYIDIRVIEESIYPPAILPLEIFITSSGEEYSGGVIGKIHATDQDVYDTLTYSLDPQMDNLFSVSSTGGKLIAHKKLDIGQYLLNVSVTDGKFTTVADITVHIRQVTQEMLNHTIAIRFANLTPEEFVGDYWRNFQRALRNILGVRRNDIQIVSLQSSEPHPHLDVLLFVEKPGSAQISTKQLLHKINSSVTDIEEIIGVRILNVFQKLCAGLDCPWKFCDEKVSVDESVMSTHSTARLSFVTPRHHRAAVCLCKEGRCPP
Kind of experiment: pull-down.

B1: GST-OLFM4 (OLFM4 without signal peptide) (domain or fragment)
chain: not shown
For B1, the binding result is “binds”.
